Reference: publication doi:10.1101/2022.10.18.512691

What was measured:
[1] = target: APS-kinase from Methanothermococcus thermolithotrophicus (Methanothermococcus thermolithotrophicus); assay: crystal structure
[2] = target: ATP-sulfurylase from Methanothermococcus thermolithotrophicus (Methanothermococcus thermolithotrophicus); assay: SEC
[3] = target: ATP-sulfurylase from Methanothermococcus thermolithotrophicus (Methanothermococcus thermolithotrophicus); assay: crystal structure

Row | stoichiometry N [1] | stoichiometry N [2] | stoichiometry N [3] | Substance
1 | 2 |  |  | APS-kinase from Methanothermococcus thermolithotrophicus (enzyme)
2 |  | 2 | 2 | ATP-sulfurylase from Methanothermococcus thermolithotrophicus (enzyme)
